T1: P-selectin/Fc (human, UniProt P16109 42-771)
T1 construct: P-selectin; Labelled with IR800CW dye for the SPOT-Vim array; No catalogue number printed; also called P-sel/Fc; P-sel/Fc-IR800; source: bought: R & D Systems
T1 sequence (looked up): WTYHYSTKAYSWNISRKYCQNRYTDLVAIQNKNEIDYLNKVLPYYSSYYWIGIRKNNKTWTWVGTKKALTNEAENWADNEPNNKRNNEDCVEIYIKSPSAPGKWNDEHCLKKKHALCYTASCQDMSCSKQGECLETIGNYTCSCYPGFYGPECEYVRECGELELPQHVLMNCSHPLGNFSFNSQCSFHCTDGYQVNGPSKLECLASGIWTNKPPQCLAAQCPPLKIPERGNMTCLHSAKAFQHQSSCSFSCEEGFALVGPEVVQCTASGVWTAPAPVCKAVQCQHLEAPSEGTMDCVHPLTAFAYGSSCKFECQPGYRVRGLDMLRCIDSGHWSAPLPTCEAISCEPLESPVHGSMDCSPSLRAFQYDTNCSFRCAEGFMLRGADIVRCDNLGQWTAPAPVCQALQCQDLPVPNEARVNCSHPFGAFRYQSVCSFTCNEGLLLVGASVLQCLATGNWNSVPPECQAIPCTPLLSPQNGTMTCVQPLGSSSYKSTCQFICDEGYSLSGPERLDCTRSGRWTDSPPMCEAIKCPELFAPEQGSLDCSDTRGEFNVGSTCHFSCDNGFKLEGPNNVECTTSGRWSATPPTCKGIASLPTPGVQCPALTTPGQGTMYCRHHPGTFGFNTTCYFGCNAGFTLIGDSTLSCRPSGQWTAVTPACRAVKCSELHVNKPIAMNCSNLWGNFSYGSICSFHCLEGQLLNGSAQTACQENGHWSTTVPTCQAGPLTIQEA


Key:
[1] = target: the molecule itself; test: SDS-PAGE in non-reducing and reducing conditions, Coomassie stain; purified protein; non-reduced against reduced
P-selectin/Fc [2] = target: T1, P-selectin/Fc; test: BLI; P-sel/Fc or PSGL-1/Fc (10 μg/mL) immobilised on anti-human IgG Fc (AHC) sensors; rhVim or rhRod as analyte, 0–1,000 nM; DPBS; steady state analysis; conditions: both partners purified
P-selectin/Fc [3] = target: T1, P-selectin/Fc; test: BLI; separate set of experiments: room temperature aliquot of rhRod (1,000 nM) on immobilized P-sel/Fc, performed as above; DPBS; conditions: both partners purified
P-selectin/Fc [4] = target: T1, P-selectin/Fc; test: BLI; blocking: P-sel/Fc on AR2G sensors placed into rhRod 0–1,000 nM (association, then dissociation in DPBS), then into 500 nM PSGL-1/Fc (Sino Biological); PSGL-1/Fc response against rhRod concentration, non-linear regression; in duplicate; conditions: both partners purified
P-selectin/Fc [5] = target: T1, P-selectin/Fc; test: BLI; rhVim or rhRod (50 μg/mL) immobilised by amine coupling on AR2G sensors; P-sel/Fc or PSGL-1/Fc as analyte, 0–1,000 nM; DPBS; steady state analysis; conditions: both partners purified
P-selectin/Fc [6] = target: T1, P-selectin/Fc; test: BLI; P-sel/Fc immobilised on AR2G sensors; PSGL-1/Fc (Sino Biological) as analyte, 0–1,000 nM; DPBS; in duplicate; conditions: both partners purified

| Binder | binding result [1] | Kd (P-selectin/Fc [2]) [nM] | Kd (P-selectin/Fc [3]) [nM] | IC50 (P-selectin/Fc [4]) [nM] | Kd (P-selectin/Fc [5]) [nM] | Kd (P-selectin/Fc [6]) [nM] |
| --- | --- | --- | --- | --- | --- | --- |
| recombinant human rod domain of vimentin (domain or fragment, vimentin, human, rod domain, aa residues 96-407 (base pairs 717-1,652 of NM_00380.3 as printed); 38.2 kDa used for concentration; Labelled with IR800CW dye for the SPOT-Psel array; Dimerized in non-reducing SDS-PAGE. ΔrhRod is the same protein after 10 minutes in boiling water; also called rhRod; rod domain of recombinant vimentin) not shown | binds | 10 ± 0.6 | 280 ± 61 | 20 | 41 ± 6 | – |
| recombinant human PSGL-1/Fc (Sino Biological Inc.) (Fc fusion, UniProt Q14242 42-320, looked up, P-selectin glycoprotein ligand-1, human; No catalogue number printed; source: bought: Sino Biological Inc) QATEYEYLDYDFLPETEPPEMLRNSTDTTPLTGPGTPESTTVEPAARRSTGLDAGGAVTELTTELANMGNLSTDSAAMEIQTTQPAATEAQTTQPVPTEAQTTPLAATEAQTTRLTATEAQTTPLAATEAQTTPPAATEAQTTQPTGLEAQTTAPAAMEAQTTAPAAMEAQTTPPAAMEAQTTQTTAMEAQTTAPEATEAQTTQPTATEAQTTPLAAMEALSTEPSATEALSMEPTTKRGLFIPFSVSSVTHKGIPMAASNLSVNYPVGAPDHISVKQC | – | – | – | – | – | 240 ± 67 |
